What was measured:
[1] = system: HeLa Kyoto; experiment: solubility in G1/S (NP-40 vs SDS abundance) (log2 ratio); higher = more soluble; conditions: cell cycle stage: G1/S
[2] = system: HeLa Kyoto; experiment: solubility change mitosis vs G1/S (difference of NP-40 vs SDS log2 ratios) (log2 ratio difference); higher = more soluble in mitosis
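For solubility change mitosis vs G1/S (difference of NP-40 vs SDS log2 ratios) in this document: synchronized HeLa Kyoto cells (double thymidine block for G1/S, nocodazole release for mitosis), protein amounts in NP-40 versus SDS lysates quantified by mass spectrometry, three biological replicates.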
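For solubility in G1/S (NP-40 vs SDS abundance) in this document: HeLa Kyoto cells arrested at G1/S by double thymidine block, proteins quantified by TMT10plex mass spectrometry in mild NP-40 versus SDS extracts, three biological replicates.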

Sequence	solubility in G1/S (log2) [1]	solubility change mitosis (log2) [2]
MESTPSRGLNRVHLQCRNLQEFLGGLSPGVLDRLYGHPATCLAVFRELPSLAKNWVMRMLFLEQPLPQAAVALWVKKEFSKAQEESTGLLSGLRIWHTQLLPGGLQGLILNPIFRQNLRIALLGGGKAWSDDTSQLGPDKHARDVPSLDKYAEERWEVVLHFMVGSPSAAVSQDLAQLLSQAGLMKSTEPGEPPCITSAGFQFLLLDTPAQLWYFMLQYLQTAQSRGMDLVEILSFLFQLSFSTLGKDYSVEGMSDSLLNFLQHLREFGLVFQRKRKSRRYYPTRLAINLSSGVSGAGGTVHQPGFIVVETNYRLYAYTESELQIALIALFSEMLYRFPNMVVAQVTRESVQQAIASGITAQQIIHFLRTRAHPVMLKQTPVLPPTITDQIRLWELERDRLRFTEGVLYNQFLSQVDFELLLAHARELGVLVFENSAKRLMVVTPAGHSDVKRFWKRQKHSS [GTF2H4]	-0.135	0.00292
METDESPSPLPCGPAGEAVMESRARPFQALPREQSPPPPLQTSSGAEVMDVGSGGDGQSELPAEDPFNFYGASLLSKGSFSKGRLLIDPNCSGHSPRTARHAPAVRKFSPDLKLLKDVKISVSFTESCRSKDRKVLYTGAERDVRAECGLLLSPVSGDVHACPFGGSVGDGVGIGGESADKKDEENELDQEKRVEYAVLDELEDFTDNLELDEEGAGGFTAKAIVQRDRVDEEALNFPYEDDFDNDVDALLEEGLCAPKKRRTEEKYGGDSDHPSDGETSVQPMMTKIKTVLKSRGRPPTEPLPDGWIMTFHNSGVPVYLHRESRVVTWSRPYFLGTGSIRKHDPPLSSIPCLHYKKMKDNEEREQSSDLTPSGDVSPVKPLSRSAELEFPLDEPDSMGADPGPPDEKDPLGAEAAPGALGQVKAKVEVCKDESVDLEEFRSYLEKRFDFEQVTVKKFRTWAERRQFNREMKRKQAESERPILPANQKLITLSVQDAPTKKEFVINPNGKSEVCILHEYMQRVLKVRPVYNFFECENPSEPFGASVTIDGVTYGSGTASSKKLAKNKAARATLEILIPDFVKQTSEEKPKDSEELEYFNHISIEDSRVYELTSKAGLLSPYQILHECLKRNHGMGDTSIKFEVVPGKNQKSEYVMACGKHTVRGWCKNKRVGKQLASQKILQLLHPHVKNWGSLLRMYGRESSKMVKQETSDKSVIELQQYAKKNKPNLHILSKLQEEMKRLAEEREETRKKPKMSIVASAQPGGEPLCTVDV [DGCR8]	-0.452	0.0203
METMRAQRLQPGVGTSGRGTLRALRPGVTGAAAATATPPAGPPPAPPPPAPPPPPLLLSGAPGLPLPPGAAGSPAVLREAVEAVVRSFAKHTQGYGRVNVVEALQEFWQMKQSRGADLKNGALVVYEMVPSNSPPYVCYVTLPGGSCFGSFQFCPTKAEARRSAAKIALMNSVFNEHPSRRITDEFIEKSVSEALASFNGNREEADNPNTGIGAFRFMLESNKGKSMLEFQELMTVFQLLHWNGSLKAMRERQCSRQEVLAHYSHRALDDDIRHQMALDWVSREQSVPGALSRELASTERELDEARLAGKELRFHKEKKDILVLAAGQLGNMHSSNC [LIX1L]	0.528	-0.1
MFSAGAESLLHQAREIQDEELKKFCSRICKLLQAEDLGPDTLDSLQRLFLIISATKYSRRLEKTCVDLLQATLGLPACPEQLQVLCAAILREMSPSDSLSLAWDHTQNSRQLSLVASVLLAQGDRNEEVRAVGQGVLRALESRQPEGPSLRHLLPVMAKVVVLSPGTLQEDQATLLSKRLVDWLRYASLQQGLPHSGGFFSTPRARQPGPVTEVDGAVATDFFTVLSSGHRFTDDQWLNVQAFSMLRAWLLHSGPEGPGTLDTDDRSEQEGSTLSVISATSSAGRLLPPRERLREVAFEYCQRLIEQSNRRALRKGDSDLQKACLVEAVLVLDVLCRQDPSFLYRSLSCLKALHGRVRGDPASVRVLLPLAHFFLSHGEAAAVDSEAVYQHLFTRIPVEQFHSPMLAFEFIQFCRDNLHLFSGHLSTLRLSFPNLFKFLAWNSPPLTSEFVALLPALVDAGTALEMLHALLDLPCLTAVLDLQLRSAPAASERPLWDTSLRAPSCLEAFRDPQFQGLFQYLLRPKASGATERLAPLHQLLQPMAGCARVAQCAQAVPTLLQAFFSAVTQVADGSLINQLALLLLGRSDSLYPAPGYAAGVHSVLSSQFLALCTLKPSLVVELARDLLEFLGSVNGLCSRASLVTSVVWAIGEYLSVTYDRRCTVEQINKFFEALEALLFEVTQCRPSAALPRCPPQVVTVLMTTLTKLASRSQDLIPRASLLLSKMRTLAHSPATSSTHSEEGAEAIRTRATELLTLLKMPSVAQFVLTPSTEVCSPRYHRDANTALPLALRTVSRLVEREAGLMPG [AP5Z1]	0.134	-0.0926
MFSALKKLVGSDQAPGRDKNIPAGLQSMNQALQRRFAKGVQYNMKIVIRGDRNTGKTALWHRLQGRPFVEEYIPTQEIQVTSIHWSYKTTDDIVKVEVWDVVDKGKCKKRGDGLKMENDPQEAESEMALDAEFLDVYKNCNGVVMMFDITKQWTFNYILRELPKVPTHVPVCVLGNYRDMGEHRVILPDDVRDFIDNLDRPPGSSYFRYAESSMKNSFGLKYLHKFFNIPFLQLQRETLLRQLETNQLDMDATLEELSVQQETEDQNYGIFLEMMEARSRGHASPLAANGQSPSPGSQSPVVPAGAVSTGSSSPGTPQPAPQLPLNAAPPSSVPPVPPSEALPPPACPSAPAPRRSIISRLFGTSPATEAAPPPPEPVPAAEGPATVQSVEDFVPDDRLDRSFLEDTTPARDEKKVGAKAAQQDSDSDGEALGGNPMVAGFQDDVDLEDQPRGSPPLPAGPVPSQDITLSSEEEAEVAAPTKGPAPAPQQCSEPETKWSSIPASKPRRGTAPTRTAAPPWPGGVSVRTGPEKRSSTRPPAEMEPGKGEQASSSESDPEGPIAAQMLSFVMDDPDFESEGSDTQRRADDFPVRDDPSDVTDEDEGPAEPPPPPKLPLPAFRLKNDSDLFGLGLEEAGPKESSEEGKEGKTPSKEKKKKKKKGKEEEEKAAKKKSKHKKSKDKEEGKEERRRRQQRPPRSRERTAADELEAFLGGGAPGGRHPGGGDYEEL [RABL6]	0.183	-0.0863
MFSLKPPKPTFRSYLLPPPQTDDKINSEPKIKKLEPVLLPGEIVVNEVNFVRKCIATDTSQYDLWGKLICSNFKISFITDDPMPLQKFHYRNLLLGEHDVPLTCIEQIVTVNDHKRKQKVLGPNQKLKFNPTELIIYCKDFRIVRFRFDESGPESAKKVCLAIAHYSQPTDLQLLFAFEYVGKKYHNSANKINGIPSGDGGGGGGGGNGAGGGSSQKTPLFETYSDWDREIKRTGASGWRVCSINEGYMISTCLPEYIVVPSSLADQDLKIFSHSFVGRRMPLWCWSHSNGSALVRMALIKDVLQQRKIDQRICNAITKSHPQRSDVYKSDLDKTLPNIQEVQAAFVKLKQLCVNEPFEETEEKWLSSLENTRWLEYVRAFLKHSAELVYMLESKHLSVVLQEEEGRDLSCCVASLVQVMLDPYFRTITGFQSLIQKEWVMAGYQFLDRCNHLKRSEKESPLFLLFLDATWQLLEQYPAAFEFSETYLAVLYDSTRISLFGTFLFNSPHQRVKQSTEFAISKNIQLGDEKGLKFPSVWDWSLQFTAKDRTLFHNPFYIGKSTPCIQNGSVKSFKRTKKSYSSTLRGMPSALKNGIISDQELLPRRNSLILKPKPDPAQQTDSQNSDTEQYFREWFSKPANLHGVILPRVSGTHIKLWKLCYFRWVPEAQISLGGSITAFHKLSLLADEVDVLSRMLRQQRSGPLEACYGELGQSRMYFNASGPHHTDTSGTPEFLSSSFPFSPVGNLCRRSILGTPLSKFLSGAKIWLSTETLANED [MTMR10]	-0.147	0.00531
MFSRNHRSRVTVARGSALEMEFKRGRFRLSLFSDLPEDTELQRKLDHEIRMREGACKLLAACSQREQALEATKSLLVCNSRILSYMGELQRRKEAQVLGKTSRRPSDSGPPAERSPCRGRVCISDLRIPLMWKDTEYFKNKGDLHRWAVFLLLQLGEHIQDTEMILVDRTLTDISFQSNVLFAEAGPDFELRLELYGACVEEEGALTGGPKRLATKLSSSLGRSSGRRVRASLDSAGGSGSSPILLPTPVVGGPRYHLLAHTTLTLAAVQDGFRTHDLTLASHEENPAWLPLYGSVCCRLAAQPLCMTQPTASGTLRVQQAGEMQNWAQVHGVLKGTNLFCYRQPEDADTGEEPLLTIAVNKETRVRAGELDQALGRPFTLSISNQYGDDEVTHTLQTESREALQSWMEALWQLFFDMSQWKQCCDEIMKIETPAPRKPPQALAKQGSLYHEMAIEPLDDIAAVTDILTQREGARLETPPPWLAMFTDQPALPNPCSPASVAPAPDWTHPLPWGRPRTFSLDAVPPDHSPRARSVAPLPPQRSPRTRGLCSKGQPRTWLQSPV [RTKN]	0.208	-0.0634
MGAAGSSALARFVLLAQSRPGWLGVAALGLTAVALGAVAWRRAWPTRRRRLLQQVGTVAQLWIYPVKSCKGVPVSEAECTAMGLRSGNLRDRFWLVINQEGNMVTARQEPRLVLISLTCDGDTLTLSAAYTKDLLLPIKTPTTNAVHKCRVHGLEIEGRDCGEATAQWITSFLKSQPYRLVHFEPHMRPRRPHQIADLFRPKDQIAYSDTSPFLILSEASLADLNSRLEKKVKATNFRPNIVISGCDVYAEDSWDELLIGDVELKRVMACSRCILTTVDPDTGVMSRKEPLETLKSYRQCDPSERKLYGKSPLFGQYFVLENPGTIKVGDPVYLLGQ [MARC1]	0.00278	-0.0926
MGALARALLLPLLAQWLLRAAPELAPAPFTLPLRVAAATNRVVAPTPGPGTPAERHADGLALALEPALASPAGAANFLAMVDNLQGDSGRGYYLEMLIGTPPQKLQILVDTGSSNFAVAGTPHSYIDTYFDTERSSTYRSKGFDVTVKYTQGSWTGFVGEDLVTIPKGFNTSFLVNIATIFESENFFLPGIKWNGILGLAYATLAKPSSSLETFFDSLVTQANIPNVFSMQMCGAGLPVAGSGTNGGSLVLGGIEPSLYKGDIWYTPIKEEWYYQIEILKLEIGGQSLNLDCREYNADKAIVDSGTTLLRLPQKVFDAVVEAVARASLIPEFSDGFWTGSQLACWTNSETPWSYFPKISIYLRDENSSRSFRITILPQLYIQPMMGAGLNYECYRFGISPSTNALVIGATVMEGFYVIFDRAQKRVGFAASPCAEIAGAAVSEISGPFSTEDVASNCVPAQSLSEPILWIVSYALMSVCGAILLVLIVLLLLPFRCQRRPRDPEVVNDESSLVRHRWK [BACE2]	0.0932	0.0177
